The source of these data is publication doi:10.1101/2025.09.10.675329 (bioRxiv, 2025).

In this assay the target is CDK5 (full-length), His-tag cleaved (human, UniProt Q00535 1-292). Put plainly: SEC.

B1: cyclin B1 (amino acids 152-433, C167S, C238S, C350S), co-expressed with CDK5 from a single 438-B vector (domain or fragment)
chain: AVNDVDAEDGADPNLSSEYVKDIYAYLRQLEEEQAVRPKYLLGREVTGNMRAILIDWLVQVQMKFRLLQETMYMTVSIIDRFMQNNSVPKKMLQLVGVTAMFIASKYEEMYPPEIGDFAFVTDNTYTKHQIRQMEMKILRALNFGLGRPLPLHFLRRASKIGEVDVEQHTLAKYLMELTMLDYDMVHFPPSQIAAGAFSLALKILDNGEWTPTLQHYLSYTEESLLPVMQHLAKNVVMVNQGLTKHMTVKNKYATSKHAKISTLPQLNSALVQDLAKAVAKV
For B1, the binding result is recorded as “binds”.
